Changes are numbered by the printed parent chain.
B1: h23H8-S1 (antibody, V domains shown)
VH: QVQLVQSGAEVKKPGASVKVSCKASGYTFTDNTIHWVRQAPGQGLEWMGHINPYYGGTNNNEKFKDRVTMTRDTSISTAYMELSRLRSDDTAVYYCARKGIYYSSPFDYWGQGTTVTVSS
VL: DIQMTQSPSSLSASVGDRVTITCRASQDINNYLNWYQQKPGKAPKLLIYYTSKLHSGVPSRFSGSGSGTDFTLTISSLQPEDFATYYCQQGNTLPFTFGQGTKLEIK
B2: h23H8-S2 (antibody, V domains shown)
VH: B1 VH
VL: B1 VL with Y49S, P80R
B3: h23H8-S3 (antibody, V domains shown)
VH: B1 VH
VL: B1 VL with Y49S
B4: h13B3-S1 (antibody, V domains shown)
VH: QVQLVQSGAEVKKPGASVKVSCKASGYTFTEYTMHWVRQAPGQGLEWMGSINPYYGGTSYNEKFKDRVTMTRDTSTSTVYMELSSLRSEDTAVYYCARYGNYVGYFDYWGQGTTVTVSS
VL: EIVLTQSPGTLSLSPGERATLSCRASSSVHYMYWYQQKPGQAPRLLIYYTSNLAPGIPDRFSGSGSGTDFTLTISRLEPEDFAVYYCQQFTSSPYTFGGGTKVEIK
B5: h13B3-S2 (antibody, V domains shown)
VH: B4 VH with M70S, T76I, V79A, S85R, E89D, A92V
VL: B4 VL
B6: h13B3-S4 (antibody, V domains shown)
VH: B4 VH with M70S, T76I, V79A, S85R, E89D, A92V
VL: B4 VL with G9A, D59A, R76S
B7: h13B3-S3 (antibody, V domains shown)
VH: B4 VH
VL: B4 VL with G9A, D59A, R76S
B8: h16B3-S1 (antibody, V domains shown)
VH: EVQLVESGGGLVQPGGSLRLSCAASGFTFSGYTMSWVRQAPGKGLEWVSEISFARDRAFYPDTVKGRFTISRDNSKNTLYLQMNSLRAEDTAVYYCAKLGGRNHDYWYFDVWGQGTTVTVSS
VL: DIVMTQSPDSLAVSLGERATINCRASESVEYYGTSLMQWYQQKPGQPPKLLIYAASNVESGVPDRFSGSGSGTDFTLTISSLQAEDVAVYYCQQSWKVPFTFGQGTKLEIK
B9: h53A11-S1 (antibody, V domains shown)
VH: QVQLVQSGAEVKKPGASVKVSCKASGYTFTDYTMHWVRQAPGQRLEWMGGINPYYGGTTYNEKFKDRVTITRDTSASTAYMELSSLRSEDTAVYYCAKGDYYGGSYNYWGQGTTVTVSS
VL: EIVMTQSLATLSVSPGERATLSCRASQDISNSLHWYQQKPGQAPRLLIKYASQSISGIPARFSGSGSGTEFTLTISSLQSEDFAVYYCQQSNSWPYTFGQGTKLEIK
B10: h53A11-S2 (antibody, V domains shown)
VH: B9 VH
VL: B9 VL with K49Y
B11: h53A11-S3 (antibody, V domains shown)
VH: B9 VH
VL: B9 VL with L8P
B12: h12B10-S1 (antibody, V domains shown)
VH: EVQLVESGGGLVKPGGSLRLSCAASGFSLSTSGMGVGWVRQAPGKGLEWLAHIWWNDEKYYNPSLKSRFTISRDDSKNTLYLQMNSLKTEDTAVYYCARDHLAYYFDVWGQGTLVTVSS
VL: DIQMTQSPSSLSASVGDRVTITCKASQDINKYIAWYQQKPGKAPKLLMAYPFTLQPGVPSRFSGSGSGTDFTLTISSLQPEDFATYYCLQYDNLLWTFGQGTKVEIK
B13: h12B10-S3 (antibody, V domains shown)
VH: B12 VH with Y104F, Y105F, V108L
VL: B12 VL
B14: h12B10-S2 (antibody, V domains shown)
VH: B12 VH with Y104F, V108L
VL: B12 VL
B15: h12B10-S4 (antibody, V domains shown)
VH: B12 VH with T31S, A103V, Y104F, Y105F, V108L
VL: B12 VL

target: cynomolgus monkey EL (cynomolgus monkey); assay: cell-based or functional assay

| Binder | Neutralizing activity IC50 |
| --- | --- |
| B1 | 26 nM |
| B2 | 1.7 nM |
| B3 | 1.8 nM |
| B4 | 2.4 nM |
| B5 | 3.6 nM |
| B6 | 2.9 nM |
| B7 | 4.1 nM |
| B8 | 3.6 nM |
| B9 | 1.7 nM |
| B10 | 1.8 nM |
| B11 | 1.2 nM |

target: human-mouse chimeric EL (construct not specified); assay: cell-based or functional assay

| Binder | Neutralizing activity IC50 |
| --- | --- |
| B12 | 6 nM |
| B13 | 4.9 nM |
| B14 | 5.4 nM |
| B15 | 6.2 nM |

target: cynomolgus monkey EL (cynomolgus monkey); assay: Biacore; EL captured by anti-C2-tag Ab; bivalent fit

| Binder | Kd | koff | kon |
| --- | --- | --- | --- |
| B1 | 36 nM | 0.0036 s⁻¹ | 100000 M⁻¹ s⁻¹ |
| B2 | 4.3 nM | 0.00099 s⁻¹ | 230000 M⁻¹ s⁻¹ |
| B3 | 0.41 nM | 0.00015 s⁻¹ | 370000 M⁻¹ s⁻¹ |
| B4 | 5.7 nM | 0.00043 s⁻¹ | 76000 M⁻¹ s⁻¹ |
| B5 | 3.1 nM | 0.00014 s⁻¹ | 45000 M⁻¹ s⁻¹ |
| B6 | 3.5 nM | 0.00038 s⁻¹ | 110000 M⁻¹ s⁻¹ |
| B7 | 13 nM | 0.00085 s⁻¹ | 66000 M⁻¹ s⁻¹ |
| B8 | 11 nM | 0.001 s⁻¹ | 94000 M⁻¹ s⁻¹ |
| B9 | 2.3 nM | 0.0003 s⁻¹ | 130000 M⁻¹ s⁻¹ |
| B10 | 4.3 nM | 0.00065 s⁻¹ | 150000 M⁻¹ s⁻¹ |
| B11 | 5.8 nM | 0.0007 s⁻¹ | 120000 M⁻¹ s⁻¹ |

target: human-mouse chimeric EL (construct not specified); assay: as above

| Binder | Kd | koff | kon |
| --- | --- | --- | --- |
| B12 | 1.9 nM | 0.00035 s⁻¹ | 190000 M⁻¹ s⁻¹ |
| B13 | 0.11 nM | 1.7e-05 s⁻¹ | 150000 M⁻¹ s⁻¹ |
| B14 | 0.14 nM | 3.3e-05 s⁻¹ | 240000 M⁻¹ s⁻¹ |

Reference: US20200071424A1
